Measurements published in US7064106B2, “Gene and use thereof” (Takeda Chemical Industries, Ltd., priority 1999, dated 2006).

Key:
IRAP (55–82) = target: T1, IRAP (55–82) (Rattus norvegicus, UniProt P97629); assay: Yeast two-hybrid quantification assay of β-galactosidase activity (CPRG); assay type: cell-based; details: bait IRAP (55–82); prey MD36 cDNA base numbers 2995–3674; S. cerevisiae Y190; CPRG substrate
T1 construct: expressed in transfected cells; host or cells: Saccharomyces cerevisiae Y190
T1 sequence (P97629 55-82 limits assumed): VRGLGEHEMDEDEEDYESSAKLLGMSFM
Method: In order to verify the binding of human MD36 to IRAP quantitatively, the β-galactosidase activity was assayed using CPRG (chlorophenol red-β-D-galactopyranoside) as substrate.
Yeast bearing both bait and prey sought to detect the interactions therebetween was subjected to liquid culture. After the cells were recovered, the cell walls were disrupted by freezing/thawing with liquid nitrogen. After CRPG was added to a suspension of the disrupted cells, absorbance of these samples at 578 nm was measured in terms of the β-galactosidase activity. In the unit of β-galactosidase, the enzyme activity that one yeast cell is capable of hydrolyzing 1 μmol of CPRG into chlorophenol red and D-galactoside was made 1 unit. IRAP (55–82) was used as the bait sequence and as the prey sequence, the sequence (679 bp corresponding to the base numbers 2995–3674 in SEQ ID NO:3) directly isolated from human MD36 cDNA sequence by the yeast two-hybrid method was used. In addition, vector pGBT9 that expresses bait sequence-unfused GAL4-BD was used as a negative control. Using plasmids having these sequences, S. Cerevisiae Y190 was transformed and the β-galactosidase activity of the reconstructed yeast transformants was assayed. […] On the other hand, the binding activity was scarcely noted with the protein bearing GAL4-BD alone but no bait sequence (FIG. 19). […]

IRAP-His = target: T2, IRAP-His (Rattus norvegicus, UniProt P97629); assay: Biochemical binding test of human MD36 (EIA plate, anti-Penta-His detection); details: IRAP-His 1.0 μg/ml and anti-Penta-His antibody both added to human MD36-coated wells
T2 construct: to construct plasmid pET21-IRAP (1–109); made in house
T2 sequence (P97629 1-109): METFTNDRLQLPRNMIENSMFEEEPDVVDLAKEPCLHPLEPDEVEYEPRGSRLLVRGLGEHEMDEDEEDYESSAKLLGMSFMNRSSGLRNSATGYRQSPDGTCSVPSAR
Description: The C terminal part (partial peptide encoded by the partial base sequence of 2995–3674 from the 5′ end in SEQ ID NO:2) of SEQ ID NO:1 (full-length cDNA of MD36) was used as human MD36. This DNA fragment was inserted into pGEX expression vector (Amersham Pharmacia) to construct expression plasmid pGEX-MD36N4 capable of expressing the human MD36 partial protein in the form fused to GST (glutathione S-transferase) protein (GST-MD36N4 protein) under control of tac promoter. However, the protease recognition site in these junctions was removed by applying PCR. Using pGEX-MD36N4, E. coli BL21 was transformed and the transformants were cultured in LB medium in a conventional manner while inducing expression by IPTG. After culture, the cells collected were disrupted by sonication followed by centrifugation of the cell homogenate. As a result, most of the GST-MD36N4 protein were present in the insoluble fraction. […]
Protein-protein binding test was carried out by the procedure shown below. […] After the wells were again rinsed 3 times with TBS-T, the IRAP-His protein remained in the wells was quantitatively assayed using anti-Penta-His antibody (Qiagen, Inc.). […] IRAP-His (1.0 μg/ml) or anti-Penta-His antibody (diluted to 2000 fold) and both were added to the GST-MD364N-coated or uncoated wells, and after washing with TBS-T, the amount of His-Tag remained in the wells was quantified. […]

B1: MD36: human skeletal muscle-derived IRAP binding protein, SEQ ID NO:1; C-terminal part (bases 2995–3674) used in binding tests (protein, listed as Homo sapiens)
chain: MAGGEDRGDGEPVSVVTVRVQYLEDTDPFACANFPEPRRAPTCSLDGALPLGAQIPAVHRLLGAPLKLEDCALQVSPSGYYLDTELSLEEQREMLEGFYEEISKGRKPTLILRTQLSVRVNAILEKLYSSSGPELRRSLFSLKQIFQEDKDLVPEFVHSEGLSCLIRVGAAADHNYQSYILRALGQLMLFVDGMLGVVAHSDTIQWLYTLCASLSRLVVKTALKLLLVFVEYSENNAPLFIRAVNSVASTTGAPPWANLVSILEEKNGADPELLVYTVTLINKTLAALPDQDSFYDVTDALEQQGMEALVQRHLGTAGTDVDLRTQLVLYENALKLEDGDIEEAPGAGGRRERRKPSSEEGKRSRRSLEGGGCPARAPEPGPTGPASPVGPTSSTGPALLTGPASSPVGPPSGLQASVNLFPTISVAPSADTSSERSIYKLHQTASVWAPESPPVPQSPPGQARLEARFLENVAAAETEKQVALAQGRAETLAGAMPNEAGGHPDARQLWDSPETAPAARTPQSPAPCVLLRAQRSLAPEPKEPLIPASPKAEPIWELPTRAPRLSIGDLDFSDLGEDEDQDMLNVESVEAGKDIPAPSPPLPLLSGVPPPPPLPPPPPIKGPFPPPPPLPLAAPLPHSVPDSSALPTKRKTVKLFWRELKLAGGHGVSASRFGPCATLWASLDPVSVDTARLEHLFESRAKEVLPSKKAGEGRRTMTTVLDPKRSNAINIGLTTLPPVHVIKAALLNFDEFAVSKDGIEKLLTMMPTEEERQKIEEAQLANPDIPLGPAENFLMTLASIGGLAARLQLWAFKLDYDSMEREIAEPLFDLKVGMEQLVQNATFRCILATLLAVGNFLNGSQSSGFELSYLEKVSEVKDTVRRQSLLHHLCSLVLQTRPESSDLYSEIPALTRCAKVDFEQLTENLGQLERRSRAAEESLRSLAKHELAPALRARLTHFLDQCARRVAMLRIVHRRVCNRFHAFLLYLGYTPQAAREVRIMQFCHTLREFALEYRTCRERVLQQQQKQATYRERNKTRGRMITETEKFSGVAGEAPSNPSVPVAVSSGPGRGDADSHASMKSLLTSRPEDTTHNRRSRGMVQSSSPIMPTVGPSTASPEEPPGSSLPSDTSDEIMDLLVQSVTKSSPRALAARERKRSRGNRKSLRRTLKSGLGDDLVQALGLSKGPGLEV
IRAP (55–82)
  β-galactosidase activity: about 70 units
IRAP-His
  amount of His-Tag remained in the wells: markedly detected
